In data set [1] the target is T1, epitope region-containing peptide fragment (AFPPEVIGPLFFFPLLYMIFQLGEG-biotin) (Homo sapiens, UniProt Q14973).
T1 sequence (Q14973 273-297 limits assumed): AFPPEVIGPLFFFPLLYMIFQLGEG
Description: Surface plasmon resonance assay (BIAcore) of antigen binding affinity. Here is the method:
In short, a carboxymethylated dextran biosensor chip (CM5, BIAcore Inc.) was activated by N-ethyl-N′-(3-dimethylaminopropyl)-carbodiimide hydrochloride (EDC) and N-hydroxysuccinimide (NHS) in accordance with the provider's instruction. An anti-mouse IgG antibody was diluted with 10 mM sodium acetate (pH5.2) up to 30 μg/ml. The dilution was injected at a flow rate of 5 to 10 μl/minute such that the reaction unit (RU) of the protein bound became 9,000 to 14,000 RU. In contrast, an anti-human IgG antibody was diluted with 10 mM sodium acetate (pH5.0) up to 25 μg/ml. The diluted antibody was injected at a flow rate of 5 to 10 μl/minute such that the reaction unit (RU) of the protein bound became 9,000 to 14,000 RU. After injection of each of the anti IgG antibodies, 1 M ethanolamine was injected in order to block unreactive groups. For kinetic measurement, N6HB426 antibody diluted with a running buffer (HBS-P: 10 mM HEPES pH7.5, 150 mM NaCl, 0.005% NP40) up to 10 μg/ml was immobilized onto CM5 chip via the anti-mouse IgG antibody, in advance. To the chip, a solution of an epitope region-containing peptide fragment ([…]-biotin: SEQ ID NO: 24) diluted with the running buffers at different concentrations was added at 25° C. at a flow rate of 10 μl/minute for 2 minutes. In contrast, the recombinant N6HB426 human chimeric IgG4 antibody was diluted with the running buffer up to 10 μg/ml and then was immobilized onto a sensor chip (CM5) via the anti-human IgG antibody in advance. To the chip, a solution of an epitope region-containing peptide fragment diluted with the running buffers at different concentrations was added at 25° C. at a flow rate of 10 μl/minute for 2 minutes.
The refractive index of the solution varied in correlation to the mass of a chip surface changed when a peptide fragment molecule bound to N6HB426 antibody on the sensor chip, was monitored in real-time. Using simple one-to-one Langmuir binding model (BIAcore Evaluation software version 3.1) by fitting sensor grams of antigen-antibody association and dissociation at the same time, association rate (Ka) and dissociation rate (Kd) were calculated. A Kd/Ka ratio was calculated to obtain an equilibrium dissociation constant (KD).

Data set [2] deals with HBV (Genotype C or Genotype D). The experiment in a line: Live HBV infection of normal human hepatocytes (PXB cells), HBs antigen. The conditions noted are these: FIG. 2B, listed as N6HB426-20 antibody gene-derived recombinant antibody.
[3] abbreviates: 25° C., antibody immobilized on CM5 chip.

For orientation: Kd means the free concentration of one partner at which half of the binding sites on the other are occupied at equilibrium, for simple one-to-one binding. A higher Kd goes with lower affinity.

B1: Recombinant mouse IgG2a antibody: N6HB426 variable regions connected to a constant region of mouse IgG2a antibody (antibody)
heavy: QVQLQQSGAELVKPGASVKLSCKASDFTFTEYTIHWIKQMSGQGLEWIGWFYPGSGDIKYSEKFKDKATLTADKSSSTVYMELNRLTSEDSAVYFCARHMRDFRGFYYGRFYFDYWGQGTTLTVSSAKTTAPSVYPLAPVCGGTTGSSVTLGCLVKGYFPEPVTLTWNSGSLSSGVHTFPALLQSGLYTLSSSVTVTSNTWPSQTITCNVAHPASSTKVDKKIEPRGPTIKPCPPCKCPAPNLLGGPSVFIFPPKIKDVLMISLSPIVTCVVVDVSEDDPDVQISWFVNNVEVHTAQTQTHREDYNSTLRVVSALPIQHQDWMSGKEFKCKVNNKDLPAPIERTISKPKGSVRAPQVYVLPPPEEEMTKKQVTLTCMVTDFMPEDIYVEWTNNGKTELNYKNTEPVLDSDGSYFMYSKLRVEKKNWVERNSYSCSVVHEGLHNHHTTKSFSRTPGK
light: EIVLTQSPAIMSASPGEKVTITCRASSSVSSSYLHWYQQKSGVSPKLWIYSTSNLASGVPARFSGSGSGTSYSLTINSVEAEDAATYYCQQYSGYRWTFGGGTTLEIKRADAAPTVSIFPPSSEQLTSGGASVVCFLNNFYPKDINVKWKIDGSERQNGVLNSWTDQDSKDSTYSMSSTLTLTKDEYERHNSYTCEATHKTSTSPIVKSFNRNEC
In the case of B1, the equilibrium dissociation constant (Kd) in data set [1] was approximately 0.1 nM. In data set [1] (setting [3]), the “Ka (1/Ms) association rate” value was 761.7 M⁻¹ s⁻¹ and the “Kd (1/s) dissociation rate” value came to 2.39e-07 s⁻¹. Besides, the “inhibitory activity on infection of normal human hepatocytes with HBV” value in data set [2] is “comparable activity”.

Source of the values: patent US12497461B2, “Human NTCP-binding antibody capable of inhibiting infection of hepatitis B virus (HBV) to human hepatocytes” (priority 2019, dated 2025).
